assay: yeast display, Sf9 membrane polyspecificity reagent, FACS + sequencing; frameworks hold sequencing errors
Method in brief: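 Synthetic nanobody libraries on Saccharomyces cerevisiae BJ5465 were galactose-induced for 36–48 hours, stained 1 hour at 4 °C with 10% biotinylated, detergent-solubilized Sf9 membrane reagent and enriched on streptavidin microbeads. FACS then separated cells into low and high (top ~1%) gates by anti-HA (expression) and streptavidin (reagent binding) fluorescence. Genes were colony-PCR amplified, MiSeq 2 × 250 sequenced and CDR-length filtered. A clone's polyreactivity label is that of its gate of origin.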

| Sequence | polyreactivity (PSR sort gate) |
| --- | --- |
| QVQLVESGGGLVQAGGSVRLSCAASGFTFGYYAMGWYRQAPGKERELVASISSVDNTYYADSVKGRFTISRDNAKNTVSFQMNSLKPEDTAVDYCAARYRDYFVRGGYWGQGTQVSVSS | high polyreactivity |
| QVQLVESGGGLVQAGGSVRLSCAASGGTFKANAMGWYRQAPGKERELVAAISWSGGSTYYADSVKGRFTISRDNAKNSVYLQMNSLKPEDTAVYYCRYWKYRSYDYWGQGTQVTVSS | high polyreactivity |
| QVQLVESGGGLVQAGGSVRLSCAASGRIFGIYAMGWYRQAPGKERELVAAITWIGGRTYYADSVKGRFTISRDNAKNTVYLQMNSLKPEDTAVYYCNAVYTQRFATYRRYDYWGQGTQVTVSS | high polyreactivity |
| QVQLVESGGGLVQAGGTLRFSCAASGFTFYVYAMGWYRQAPGKERELVAAISKSGGSTYYADSVKGRFTISRDNAKNTVYLQMNSLKPEDTAVYYCAVYDKRSGYRGGHRYNSWGQGTQVTVSS | high polyreactivity |
| QVQLVESGGGLVQAGGTLRFSCAASGLTIDRYAMGWYRQAPGKERELVAAISFTGDRTYYADSVKGRFTISRDNAKNTVYLQMNSLKPEDTAVYYCAVRRYGYRKYDSWGQGTQVTVSS | high polyreactivity |
| QVQLVESGGGLVQAGGTLRLICAASGSIFGYYTMGWYRQASGKERELVAAITSGGSTNYADSVKGRFTISRDNAKNTVYLQMNSLKPEDTAVYYCATVSYYPWRYDYWGQGTQGTVSS | low polyreactivity |
| QVQLVESGGGLVQAGGTLRLSCAASGFTFAVYAMGWYRQAPGKERELVAAISRSGTRTYYADSVKGRFTISRDNSKNPVYIQMNSLKPEDTAVYYCAADKYRNGYDYWGQGTQVTVSS | low polyreactivity |
| QVQLVESGGGLVQAGGTLRLSCAASGFTLSVYAMGWYIQAPGKDRELVAAITRSTGSTYYADSVKGRFTISRDNAKNTVYLQMNSLKPEDTAVYYCNAGHFAHHHGYYRSKYDYWGQGTQVTVSS | low polyreactivity |
| QVQLVESGGGLVQAGGTLRLSCAASGGIFVANAMGWYRQAPGKERELVAAISRSGGSTYYADSVKGRFTISRDNAKNTVYLQMNSLKPEDTAVYYCAAKSRRQYTVGLTSDYWGQGTQVTVSS | high polyreactivity |
| QVQLVESGGGLVQAGGTLRLSCAASGGTFVSRAMGWYRQAPGKERELVAAISFSGDSTYYADSVKGRFTISRDNAKNTVYLQMNSLKPEDTAVYYCRFYSYWSWLGREYDYWGQGTQVTVSS | low polyreactivity |
| QVQLVESGGGLVQAGGTLRLSCAASGMTFSRNGMGWYRQAPGKEREVVADISYRGGRTYYADSVKGRFTFSRDNAKNTVYLQMHSLKPEDTAVYYCNAVFLVGVGPTSDYWGQRTQVTVSS | high polyreactivity |
| QVQLVESGGGLVQAGGTLRLSCAASGRIFFSYAMGWYRQAPGKERELVAAITYSGGSTYYADSVKGRFTISRDNAKNTVYLQKNSLKPEDTAVYYCNAELYEKYDYWGQGTQVTLSS | low polyreactivity |
| QVQLVESGGGLVQAGGTLRLSCAASGRIFFTNAMRRYRQASGKESELVAAISKSGARTYYADSVKGRFTISRDNAKNTVYLQMNSLKPEDTAVYYCAGDVSVAGYYYWGEGTQVTVSS | high polyreactivity |
| QVQLVESGGGLVQAGGTLRLSCAASGRIFPYYAMGWYRQAPGKERELVAAINSGGSTYYADSVKGRFTISRDNEKNTVYLQMNSLKPEDSAVYYCAVDPGYYDEYNYWGEGTQVTVSS | low polyreactivity |
| QVQLVESGGGLVQAGGTLRLSCAASGRTFNTYAMGWYRLAPGKERELVAAITVPGGSTYYADSVKGRFTLSRDNAKNTVYLQMNSLKPADTAVYYCAAERPPDGYLVVGYVSTQYYYWGQGTQVTVSS | low polyreactivity |
| QVQLVESGGGLVQAGGTLRLSCAASGRTFTYYAMGWYRQAPGKERELVATIRSGGTTNYADSVKGRFTISRDNAKNTVYLQMNSLKPEDTAEYYCARVLSYVWYYRDPYQYPDYDFWGQGTQVTGSS | low polyreactivity |
| QVQLVESGGGLVQAGGTLRLSCAASGRTFVPYAMGWYRQAPGKERELVATISSSGGSTYYADSVKGRFTISRDNSKNTVYLQMNSLKPEDTAVYYCATADRWSSSYYRSVRWYHYDYWGQGTQVTVSS | low polyreactivity |
| QVQLVESGGGLVQAGGTLRLSCAASGRTIRNYARGRYRQAPVKERELVAAITWSGGSTYYADSVKGRFTISRDNAKNTVYLQMNSLKPEDTAVYYCNVRYYTRTYNYWGQGTQVTVSS | high polyreactivity |
| QVQLVESGGGLVQAGGTLRLSCAASGSIFNPYAMGWYRQAPGKDRELVATITRPGRTNYADSVKGRFTISRDHAENTVYLQMNSLKPEDTAVYYCAAYTSYGVYYWGQGTQVTVSS | high polyreactivity |
| QVQLVESGGGLVQAGGTLRLSCAASGSIFYGNAMGWYREAPGKERQLVAAIDGTGASTYYADSVKGRFTISRDNAKNPVYLQMNSLKPEDTAVYYCNKALTSKDYPVRTVERDYWGQGTQVTVSS | low polyreactivity |
| QVQLVESGGGLVQAGGTLRLSCAASGSTFRYNAMGWYRQEPGKEWELVAAITDSGSSTYYADSVKGRFTISRDNAKNTVYLQMNSLKPEDTAVYYCAAAGSRYAWGYVYWGQGTQVTVSS | high polyreactivity |

| Sequence | polyreactivity (PSR sort gate) |
| --- | --- |
| QVQLVESGGGLVQAGGTLRLSCAASGSTFSYNAMGWYRQAPGKERELVAAISGSGGRTYYADSVKGRFTISRDNAKNTVYLQMNSLKPEDTAVYYCAARVGAGWSPKYDYWGQGTQVTVSS | high polyreactivity |
| QVQLVESGGGLVQAGGTLRLSCAASGSTFVYNAMGWYRQAPGKERDLVATITGGGSTYYADSVKGRFTISRDNAKNTVYLQMNSLKPEDTAVYYCSKRRDSYDVEYDYWGQGTQVTVSS | low polyreactivity |
| QVQLVESGGGLVQAGGTLRLSCAASGYIFVIYAMGWYRQAPGKEREWVAAISWSGDTTYYADSVKGRFTISRDNAKNTVYLQMNSLKPEDTAVYYCNAETAYYQVDYWGQGTQVTVSS | low polyreactivity |
| QVQLVESGGGLVQAGGTLRLSCAPSGSIFGDYVMGWYRQAPGKEWELVAAINRGGSTYYADSVKGRFTISRDNAKNTVYLQMKSLKPEDTAVYYCAAGYPSWYYGYPYDSWGQGTQVTVSS | low polyreactivity |
| QVQLVESGGGLVQAGGTLRLSCAPSGSTFFPYAMGWYRQAPGKEREFVSAIRGSGGVSTYYADSVKGRFTISRDNAKNTVYLQMNSLKPEDTAVYYCAKYVARRVPRGFYYWGQGTQVTVSS | high polyreactivity |
| QVQLVESGGGLVQAGGTLRLSCSATGYIFWSYAMGGYRQAPGKERELVAGITASGGSTYYADSVKGRFTISRDNAKNTVYLQMNSLKPEDTAVSYCAVALRSTPRTREVRPSPRVYYWGQGTQVTVSS | high polyreactivity |
| QVQLVESGGGLVQAGGTLRLTCAASGSIFHWNTMGWYRHAPGKESELFATITQRGGSTYYADSVKARFTLSRDNAKNTVYLQMNSLKPEDTAVYYCAAAIYRASRRRTSYSYDYWGQGTQVTVSS | high polyreactivity |
| QVQLVESGGGLVQAGGTLSLSCAASGFIFYRTARGWSRQAPGKDRELVAGISRVGSTYYADSVKGRFTISRDNAKNTVYLQMNSLKPEDTAVDYCAARSGYFYGYGYWGQGTQVTVSS | high polyreactivity |
| QVQLVESGGGLVQAGRRLRLSCAASGSTFGYYAMGWYRQAPGKERELVAAITSGATTNYADSVKGRFTISRDNAKNTVYLQMNSLKPEDTAVYYCAAGFQTRTPLNEFDNWGQGTQVTVSS | low polyreactivity |
| QVQLVESGGGLVQAGRSLRISCAASGSIFVNNAMGWYRQAPGKERELVAAISLSGGSTYYADSVTGRFTISRDTAKNTVYLQMTSLKPEDTAVYYCATRRSHYGKYDYWGQGTQVTVSS | high polyreactivity |
| QVQLVESGGGLVQAGRSLRLICAASGFTSHVYAMGWYRQAPGKERELVAAISSGSSTYYADSVKGRFTISRDNAKNTVYLQRNSLKPEDTAVYYCATTHKTLRRYESWGQGTQVTVSS | low polyreactivity |
| QVQLVESGGGLVQAGRSLRLSCAASGFIFRRYAMGWYRQAPGKEREFVAAISSGDDTDYADSVKGRFTISRDNAKNTVYLQMNSLKPEDTAVYYCAADHRYSVKYYYWGQGTQVTVSS | low polyreactivity |
| QVQLVESGGGLVQAGRSLRLSCAASGFIFSGNVMGWYRQAPGKERELVAAITSSGGSTYYADSVKGRFTISRDNAKNTVYLQMNSLKPEDTAVYYCATRYGGRYYWGQGTQVTVSS | high polyreactivity |
| QVQLVESGGGLVQAGRSLRLSCAASGFTFGYYAMGWYRQPPGKERELVAAISWNGGRTYYADSVKGRFTISRDNAKNTVYLQMISLKPEDTAVYYCAADYRFYSPTQYTYDYWGQGTQVTVSS | high polyreactivity |
| QVQLVESGGGLVQAGRSLRLSCAASGFTFYYNAMGWYRQAPGKERELVAAISSGGSTYYADSVKGRFTISRDNAKNTVYLQMNSLKPEDTAVYYCAADSLYYRYDFWGQGTQVTVSS | low polyreactivity |
| QVQLVESGGGLVQAGRSLRLSCAASGITFGRNTMGWYRQAPGKERELVAAIDSGGNTYADSVKGRFTISRDNAKNTVYLQMNSLKPEDTAVYYCAVDGGEFSSYGYWGQGTQVSVSS | low polyreactivity |
| QVQLVESGGGLVQAGRSLRLSCAASGITFIYYAMGWYRQAPGKESELVAAISKSGGRTYYADSVKGRFTISRDNAKNTVYLQMNSLKPEDTAVYYCNKLVGDDTDLYDYWGQGTQVTVSS | high polyreactivity |
| QVQLVESGGGLVQAGRSLRLSCAASGRIFSYNAMGWYRQAPGKETELVAAITFSGGRTYYADSVKGRFTISRDNAKNTVYLQMNSLKPEDTAVYYCNAYWQGYGYDYWGQGTQVTVSS | low polyreactivity |
| QVQLVESGGGLVQAGRSLRLSCAASGSPLYSYAMGWYRQAPGKEREFVAAITSDDGSTYYADSVKGRFTISRDNAKNTVYLPLTSLKPEDTAVYYCATAASVEYNYWGQCTQVTVSS | low polyreactivity |
| QVQLVESGGGLVQAGRSLRLSCAASGSTFSWNTMGWYRPAPGIERELVAAINSGGSTYYADSVKGRFTISRDNAKNTVYLQMNSLKPEDTAFYYCAARTKYYGRFDYWGQGTQVTVCS | low polyreactivity |
